We go through 10 molecules from patent publication US20120316071A1 (published 2012).

Assay [1] addresses T1, Recombinant Human DLL4 (delta-like protein 4) (human, UniProt Q9NR61 27-529).
T1 construct: Bought recombinant human DLL4 (R&D Systems Cat#1506-D4/CF), coated on the plate; also called rHuman DLL4; Delta-like 4
In words: 96-well plate ECL (MSD) binding assay on coated DLL4, 10 nM Fab.

Assay [2] deals with T1, Recombinant Human DLL4 (delta-like …). Description: ELISA on coated DLL4, 100 nM Fab. For orientation: An ELISA detects its analyte on a solid surface through an enzyme-linked reagent.
Assay [3] has as its target T2, rHuman Erythropoietin R/Fc Chimera, CF (R&D Systems Cat#963-ER) (human, UniProt P19235 25-250).
T2 construct: Bought recombinant Fc chimera; also called EPO R; EPO R/Fc; Fc part of the bought chimera not given
T2 sequence (looked up): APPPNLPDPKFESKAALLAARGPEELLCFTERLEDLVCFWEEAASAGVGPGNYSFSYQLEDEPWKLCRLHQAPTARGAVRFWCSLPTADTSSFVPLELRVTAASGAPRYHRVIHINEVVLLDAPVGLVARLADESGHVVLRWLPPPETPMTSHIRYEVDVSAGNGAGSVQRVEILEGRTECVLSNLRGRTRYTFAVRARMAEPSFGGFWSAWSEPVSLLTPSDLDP
Description: ECL multispot (MSD), antigen spotted, Fab in solution.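 Also: purified Fab incubated 1 h at 20 °C on antigen-spotted wells, bound Fab detected via TAG detection antibody, ECL compared with each well's blank, ratio of 4 or above scored as hit.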

In assay [4] the target is T3, rHuman Notch-1/Fc Chimera, CF (R&D Systems Cat#3647-TK) (human, UniProt P46531 19-526).
T3 construct: Bought recombinant Fc chimera; Fc part of the bought chimera not given
The description is as above.

Assay [5] addresses T4, rHuman IGF-1 sR, (IGF-1 sR), CF (R&D Systems Cat#391-GR) (human, UniProt P08069 31-932).
T4 construct: Bought recombinant soluble receptor; The column head prints only 'IGF-1'; also called insulin-like growth factor-1 soluble receptor
The description is as above.

Assay [6] concerns the target T5, rHuman EGF R/Fc Chimera, CF (R&D Systems Cat#344-ER) (human, UniProt P00533 25-645).
T5 construct: Bought recombinant Fc chimera; also called epidermal growth factor receptor; Fc part of the bought chimera not given
Described as above.

For assay [7], the target named is T6, rHuman ErbB2/Fc Chimera, CF (R&D Systems Cat#1129-ER) (human, UniProt P04626 23-652).
T6 construct: Bought recombinant Fc chimera; also called human epidermal growth factor 2 receptor; Fc part of the bought chimera not given
The description is as above.

Assay [8] concerns the target T7, rHuman P-Cadherin/Fc Chimera, CF (R&D Systems Cat#861-PC) (human, UniProt P22223 108-654).
T7 construct: Bought recombinant Fc chimera; Fc part of the bought chimera not given
Described as above.

For assay [9], the target named is T8, rHuman HGF R/c-MET/Fc Chimera, CF (R&D Systems Cat#358-MT/CF) (human, UniProt P08581 25-932).
T8 construct: Bought recombinant Fc chimera; also called HGF R/Fc; hepatocyte growth factor receptor; Fc part of the bought chimera not given
T8 sequence (P08581 25-932, change not shown): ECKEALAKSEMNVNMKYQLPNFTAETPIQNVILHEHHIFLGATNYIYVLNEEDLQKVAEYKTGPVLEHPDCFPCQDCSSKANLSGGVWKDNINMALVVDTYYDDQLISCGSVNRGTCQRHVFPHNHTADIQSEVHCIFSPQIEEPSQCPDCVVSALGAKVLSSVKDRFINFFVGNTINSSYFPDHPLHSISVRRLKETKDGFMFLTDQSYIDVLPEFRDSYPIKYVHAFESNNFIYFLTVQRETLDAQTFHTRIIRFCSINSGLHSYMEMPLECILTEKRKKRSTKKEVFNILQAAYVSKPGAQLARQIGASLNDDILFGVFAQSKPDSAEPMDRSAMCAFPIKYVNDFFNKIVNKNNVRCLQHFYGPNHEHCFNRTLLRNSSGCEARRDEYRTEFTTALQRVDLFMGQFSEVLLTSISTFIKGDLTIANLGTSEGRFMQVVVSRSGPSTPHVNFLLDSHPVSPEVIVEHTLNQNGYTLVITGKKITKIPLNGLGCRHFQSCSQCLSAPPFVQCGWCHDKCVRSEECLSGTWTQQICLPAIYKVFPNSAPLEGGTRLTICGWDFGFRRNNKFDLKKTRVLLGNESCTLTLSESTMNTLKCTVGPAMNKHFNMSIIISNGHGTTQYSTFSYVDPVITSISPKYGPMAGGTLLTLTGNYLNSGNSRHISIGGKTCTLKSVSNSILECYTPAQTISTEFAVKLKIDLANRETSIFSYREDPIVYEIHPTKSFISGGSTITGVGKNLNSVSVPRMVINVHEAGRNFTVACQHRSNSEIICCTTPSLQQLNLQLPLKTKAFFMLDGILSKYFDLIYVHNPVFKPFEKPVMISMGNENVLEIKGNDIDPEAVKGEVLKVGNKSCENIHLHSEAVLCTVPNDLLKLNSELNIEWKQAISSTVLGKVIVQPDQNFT
Described as above.

For assay [10], the target named is T9, rHuman CD44/Fc Chimera, CF (R&D Systems Cat#3660-CD) (human, UniProt P16070 21-220).
T9 construct: Bought recombinant Fc chimera; Fc part of the bought chimera not given
Described as above.

B1: Fab VH1-46_IGHD6-6*01_IGHJ1*01 S102A/S103P/S104F/H111F S54V & L6_IGKJ1*01 (Fab, V domains shown)
VH: QVQLVQSGAEVKKPGASVKVSCKASGYTFTSYYMHWVRQAPGQGLEWMGIINPVGGSTSYAQKFQGRVTMTRDTSTSTVYMELSSLRSEDTAVYYCAREEYAPFSAEYFQFWGQGTLVTVSS
VL: not shown
notes: Fab made in E. coli; CH1 with tags and kappa CL are not included; also called APFF S54V
Consider B1, for which the “ECL signal” value in [1] was 22200. In assay [2], the “ELISA signal” value was 0.

B2: Fab VH1-46_IGHD6-6*01_IGHJ1*01 S102A/S103P/S104F/H111F (APFF) & L6_IGKJ1*01 S28N (Fab, V domains shown)
VH: QVQLVQSGAEVKKPGASVKVSCKASGYTFTSYYMHWVRQAPGQGLEWMGIINPSGGSTSYAQKFQGRVTMTRDTSTSTVYMELSSLRSEDTAVYYCAREEYAPFSAEYFQFWGQGTLVTVSS
VL: EIVLTQSPATLSLSPGERATLSCRASQNVSSYLAWYQQKPGQAPRLLIYDASNRATGIPARFSGSGSGTDFTLTISSLEPEDFAVYYCQQRSNWPPWTFGQGTKVEIKR
notes: Fab; VH cloned into Plasmid A (CH1, His6 and Flag tags) and VL into Plasmid C (kappa CL); also called APFF / S28N
For the molecule B2, the ECL signal in [3] came out at 440; in assay [4], 243; in assay [5], 331; in assay [6], 325; in assay [7], 363; in assay [8] it was 447. Besides, the ECL signal is 406 in assay [9] and 399 in assay [10].

B3: Fab VH1-46_IGHD6-6*01_IGHJ1*01 S102A/S103P/S104F/H111F (APFF) & L6_IGKJ1*01 S28R (Fab, V domains shown)
VH: QVQLVQSGAEVKKPGASVKVSCKASGYTFTSYYMHWVRQAPGQGLEWMGIINPSGGSTSYAQKFQGRVTMTRDTSTSTVYMELSSLRSEDTAVYYCAREEYAPFSAEYFQFWGQGTLVTVSS
VL: EIVLTQSPATLSLSPGERATLSCRASQRVSSYLAWYQQKPGQAPRLLIYDASNRATGIPARFSGSGSGTDFTLTISSLEPEDFAVYYCQQRSNWPPWTFGQGTKVEIKR
notes: Fab; VH cloned into Plasmid A (CH1, His6 and Flag tags) and VL into Plasmid C (kappa CL); also called APFF / S28R
Consider B3, for which the ECL signal in assay [3] turned out to be 542; in assay [4] it was 425; in assay [5], 437; in [6], 403; in assay [7], 318; in assay [8] it was 395. For the same molecule, the ECL signal in [9] and in [10] was 378 throughout.

B4: Fab VH1-46_IGHD6-6*01_IGHJ1*01 S102A/S103P/S104F/H111F (APFF) & L6_IGKJ1*01 S28W (Fab, V domains shown)
VH: QVQLVQSGAEVKKPGASVKVSCKASGYTFTSYYMHWVRQAPGQGLEWMGIINPSGGSTSYAQKFQGRVTMTRDTSTSTVYMELSSLRSEDTAVYYCAREEYAPFSAEYFQFWGQGTLVTVSS
VL: EIVLTQSPATLSLSPGERATLSCRASQWVSSYLAWYQQKPGQAPRLLIYDASNRATGIPARFSGSGSGTDFTLTISSLEPEDFAVYYCQQRSNWPPWTFGQGTKVEIKR
notes: Fab; VH cloned into Plasmid A (CH1, His6 and Flag tags) and VL into Plasmid C (kappa CL); also called APFF / S28W
Turning to B4, the ECL signal worked out at 489 in assay [3]; 349 in assay [4]; 489 in [5]; 283 in [6]; 316 in [7]; 385 in assay [8]. Besides, the ECL signal in [9] came out at 414; in [10] it was 404.

B5: Fab VH1-46_IGHD6-6*01_IGHJ1*01 S102A/S103P/S104F/H111F (APFF) & L6_IGKJ1*01 S30D (Fab, V domains shown)
VH: QVQLVQSGAEVKKPGASVKVSCKASGYTFTSYYMHWVRQAPGQGLEWMGIINPSGGSTSYAQKFQGRVTMTRDTSTSTVYMELSSLRSEDTAVYYCAREEYAPFSAEYFQFWGQGTLVTVSS
VL: EIVLTQSPATLSLSPGERATLSCRASQSVDSYLAWYQQKPGQAPRLLIYDASNRATGIPARFSGSGSGTDFTLTISSLEPEDFAVYYCQQRSNWPPWTFGQGTKVEIKR
notes: Fab; VH cloned into Plasmid A (CH1, His6 and Flag tags) and VL into Plasmid C (kappa CL); also called APFF / S30D
For B5, the ECL signal in assay [3] stood at 496; in [4], 415; in assay [5], 357; in [6] it was 325; in [7] it was 284; in assay [8], 543. The ECL signal was found to be 312 in assay [9] and 434 in assay [10].

B6: Fab VH1-46_IGHD6-6*01_IGHJ1*01 S102A/S103P/S104F/H111F (APFF) & L6_IGKJ1*01 S28E (Fab, V domains shown)
VH: QVQLVQSGAEVKKPGASVKVSCKASGYTFTSYYMHWVRQAPGQGLEWMGIINPSGGSTSYAQKFQGRVTMTRDTSTSTVYMELSSLRSEDTAVYYCAREEYAPFSAEYFQFWGQGTLVTVSS
VL: EIVLTQSPATLSLSPGERATLSCRASQEVSSYLAWYQQKPGQAPRLLIYDASNRATGIPARFSGSGSGTDFTLTISSLEPEDFAVYYCQQRSNWPPWTFGQGTKVEIKR
notes: Fab; VH cloned into Plasmid A (CH1, His6 and Flag tags) and VL into Plasmid C (kappa CL); also called APFF / S28E
For the molecule B6, the ECL signal was 513 in assay [3]; 433 in [4]; 361 in [5]; 396 in [6]; 389 in [7]; 393 in [8]. The ECL signal in assay [9] stood at 401; in assay [10], 461.

B7: Fab VH1-46_IGHD6-6*01_IGHJ1*01 S102A/S103P/S104F/H111F (APFF) & L6_IGKJ1*01 S28I (Fab, V domains shown)
VH: QVQLVQSGAEVKKPGASVKVSCKASGYTFTSYYMHWVRQAPGQGLEWMGIINPSGGSTSYAQKFQGRVTMTRDTSTSTVYMELSSLRSEDTAVYYCAREEYAPFSAEYFQFWGQGTLVTVSS
VL: EIVLTQSPATLSLSPGERATLSCRASQIVSSYLAWYQQKPGQAPRLLIYDASNRATGIPARFSGSGSGTDFTLTISSLEPEDFAVYYCQQRSNWPPWTFGQGTKVEIKR
notes: Fab; VH cloned into Plasmid A (CH1, His6 and Flag tags) and VL into Plasmid C (kappa CL); also called APFF / S28I
B7: the ECL signal in assay [3] was 450; in [4], 442; in assay [5], 353; in assay [6] it was 386; in assay [7], 265; in [8], 416. Also, the ECL signal in [9] was determined as 369; in [10] it was 412.

B8: Fab VH1-46_IGHD6-6*01_IGHJ1*01 S102A/S103P/S104F/H111F (APFF) & L6_IGKJ1*01 S28M (Fab, V domains shown)
VH: QVQLVQSGAEVKKPGASVKVSCKASGYTFTSYYMHWVRQAPGQGLEWMGIINPSGGSTSYAQKFQGRVTMTRDTSTSTVYMELSSLRSEDTAVYYCAREEYAPFSAEYFQFWGQGTLVTVSS
VL: EIVLTQSPATLSLSPGERATLSCRASQMVSSYLAWYQQKPGQAPRLLIYDASNRATGIPARFSGSGSGTDFTLTISSLEPEDFAVYYCQQRSNWPPWTFGQGTKVEIKR
notes: Fab; VH cloned into Plasmid A (CH1, His6 and Flag tags) and VL into Plasmid C (kappa CL); also called APFF / S28M
For the molecule B8, the ECL signal in [3] was found to be 360; in assay [4] it was 382; in assay [5], 341; in [6] it was 320; in [7], 271; in [8], 410. The ECL signal in assay [9] was 305; in [10], 313.

B9: Fab VH1-46_IGHD6-6*01_IGHJ1*01 S102A/S103P/S104F/H111F (APFF) & L6_IGKJ1*01 S30C (Fab, V domains shown)
VH: QVQLVQSGAEVKKPGASVKVSCKASGYTFTSYYMHWVRQAPGQGLEWMGIINPSGGSTSYAQKFQGRVTMTRDTSTSTVYMELSSLRSEDTAVYYCAREEYAPFSAEYFQFWGQGTLVTVSS
VL: EIVLTQSPATLSLSPGERATLSCRASQSVCSYLAWYQQKPGQAPRLLIYDASNRATGIPARFSGSGSGTDFTLTISSLEPEDFAVYYCQQRSNWPPWTFGQGTKVEIKR
notes: Fab; VH cloned into Plasmid A (CH1, His6 and Flag tags) and VL into Plasmid C (kappa CL); also called APFF / S30C
Take B9: the ECL signal in [3] was determined as 1790; in assay [4], 1470; in [5], 1030; in assay [6] it was 1190; in [7], 1010; in assay [8], 1690. The ECL signal worked out at 1230 in assay [9] and 1080 in assay [10].

B10: Fab VH1-46_IGHD6-6*01_IGHJ1*01 S102A/S103P/S104F/H111F (APFF) & L6_IGKJ1*01 S28H (Fab, V domains shown)
VH: QVQLVQSGAEVKKPGASVKVSCKASGYTFTSYYMHWVRQAPGQGLEWMGIINPSGGSTSYAQKFQGRVTMTRDTSTSTVYMELSSLRSEDTAVYYCAREEYAPFSAEYFQFWGQGTLVTVSS
VL: EIVLTQSPATLSLSPGERATLSCRASQHVSSYLAWYQQKPGQAPRLLIYDASNRATGIPARFSGSGSGTDFTLTISSLEPEDFAVYYCQQRSNWPPWTFGQGTKVEIKR
notes: Fab; VH cloned into Plasmid A (CH1, His6 and Flag tags) and VL into Plasmid C (kappa CL); also called APFF / S28H
With B10, the ECL signal came out at 517 in [3]; 482 in assay [4]; 355 in [5]; 435 in assay [6]; 381 in assay [7]; 447 in assay [8]. The ECL signal was found to be 346 in [9] and 513 in assay [10].
